According to the DeepSol protein solubility set:

Assay: soluble on expression in E. coli; label from the status in PepcDB or PDB records
For “MRRGGSMGPPSGDPYQSRPSPGGYYYNRSTPGGQPAPSPSHSQQSASSHHPRGVPMSQPIARRSDYRTGSEQMTPRSDHRGPSMGYGNGGSVDQRVDDVTPSYYVEHLATFAVGRQFGLTFPADGIRKLKQMEKNSAIWAQPLILRFRHNAVTVEDDNGELVEQFPLELIEQPTAHVSNDSRETYNNVLLFVVREDRKRMSTPTEMHIFQCIRVSATDVAEDLKNYVQGQFRRVRNGRRTAAPTHLQAQQQQMPFYPPDDASISSETSEMFERDVNTLNRCFDDIERFVARIQSAALAQREIEQQNHRYRTANRRDKKNQQPPDPNGILFMRAQLPLESEFVDILKKFKLSFNLLAKLKNHIHEPNAPELLHFLFTPLAVILEACHWGLGRNVAPTVASPLLSLEARELMQNCLTSHESDIWMSLGEAWRTPPEDWTKPLPPPYRPIFNDGFAPYGVADRAMATPNQIHRGHSAPPEHFRQPPPRERNMVDTLEFDRLTLERERLEFEKAKIMERESRLRHEEKQIEDEKRRMHAEKDLITKETTQPVPPPAAVVTHQPITKRYDPPISISPPPQRNNYSHVKVTVDSDTSPRQQAFIDDIVAKGGKLAVVTYDRGGQNTKELTVHKGEYLEVIFDERNWWECKNMHQRVGYVPHTILSMVPFEQQQYAQQYNVMSSQHNVIQINDGVGKMEVFISKTCNFILITTCNLFCSTTKTAVPDIYRAFVMNDETRQMSGTPCENSRSFLSSNTLSSSPENAPEIPLLENLKFNHNKLYLFHILSPNHHNNSSSTGGYNNGHHQGPGMLPEDAPSYVKERQAQNVYRPPPPPLVSDAGVQVEIRREHVAPPPPPVVIPPPPPPVRTPTMEELLRMQQQQQQKQRKPPVEEPVYQPQPAQRAGLEIWRRNQNPQLIQEVTETVGQHSGDILRPAMQRATRVAINEKSSPEDVTRWLQEKGFSPRVIDLLDGQDGANLFSLSKLHLQQACGRDEGGYLYSQLLVQKKRSGFRTHTGDELKAILNHRRTHVELSNEAAADEPVFTINPIL”, the “soluble on expression in E. coli” value was “not soluble”. With “MRRKETLQETPLTYQELASKILPELHLLAQEAGIEGYKRMKKDQLIMALLERQTQGEGLRLVKGYLEISQDGYGFLTENLHNLESRVAIVSAGLIKQYALRAGDYVVGQARPPRENERYATLLKVEAVNNLDPEAAKNRPRFDELTPQFPDRQIRLETTPDELSTRVIDLLAPIGRGQRGLIVAPPKAGKTTLLKKIANAVLKNEPDIKVIVLLIDERPEEVTDFRESVQGAEVIASTFDEPPQNHIRVAEFVHERAKRIVEEGGHVMILLDSITRLARANNLVTPPTGRTLSGGLDSAALYFPKRFLGAARNIRGGGSLTILATALVETGSRMDDVIFEEFKGTGNMELHLSRRLEERRIFPAIDILKSGTRREELLLGEEVTHKMWLLRKVLADMDPAEAMEMLLARLARTKNNKEFLASLAAR” the “soluble on expression in E. coli” value was “soluble”. For “MRRNISIPASDSESALPGSPQGSDAHVSWWCGCGVIVGMSVSLLRGRTVRRALSVLVVAGLLGAGVTGCSNDAGAKTENTIDASPTPTNTTTDGDGDSTEEPVENTPAEPEQRPTPVEPEAMKTGDKAGAIAAAQFFVEVFDYDARTSSTTLMDKYAYKKCTLCNEMRSDKQRLIDEGEISFWAEYSEAEYINSTFVGDEEIIWEVDTETSYLEHVRSLTSNEITSTRTDLILTMQIGWLGDRWELVSLGYSKK”, the “soluble on expression in E. coli” value was “not soluble”. With “MRRVETDSTGQIEVDNDKYWGAQTQRSIEHFSIGSDLMPIEVIKALAIIKKAAAITNHQLGILARTKKEIIIKVADEIIAGELDEHFPLRVLMTGSGTQSNMNVNEVISNRAIELLGGKKGSKNPIHPNDDVNMSQSSNDTFPSAMYIATALEINNRLLPALEYMQQQLADKAKQWDDIVKIGRTHMQDAVPLTLGQEFSGYAALLENNIQRIKDTLKYVYQLALGGTAVGTGLNAPDGFAEITAKYIATITSLAFVSATNKFEVQGSHDALVAVMGQLKTLANSLFKIANDIRLLSCGPRAGFHELLIPENEPGSSIMPGKVNPTQCEAMAMVAAQVIGYDVAVGIGGSAGYLEMNVYKPLIIFNIIQSIKIISDSCVNFTKYLLEGMKPNHDKIEFYLKNSLMLVTALSPVIGYDKAAKLAHYAEQKNISLAEANQELKFLSKEEFDKVVDPYKMTKGGIL” the “soluble on expression in E. coli” value was “not soluble”. With “MRRVLVGAAALITALLVLTGCTKSISGTAVKAGGAGVPRNNNSQERYPNLLKECEVLTTDILAKTVGADPLDIQSTFVGAICRWQAANPAGLIDITRFWFEQGSLSNERKVAEGLKYQVETRAIQGVDSIVMRTGDPNGACGVASDAAGVVGWWVNPQAPGIDACGQAIKLMELTLATNA” the “soluble on expression in E. coli” value was “soluble”. With “MRSGDAEIKGIKPKVIEEYSLSQGSGPSNDSWKSLMSSAKDTPLQYDHMNRESLKKYFNPNAQLIEDPLDKPIQYRVCEKCGKPLALTAIVDHLENHCAGASGK” the “soluble on expression in E. coli” value was “soluble”.
